This passage reports self-cleavage results from the RNAGym collection of RNA variant scans (doi:10.7554/elife.90254).

B1: LINE1-full (parent)
chain: UACGUAGGUGGUUUUCCCCUGAUAGUGCUAAGGGGGCCUGGAAGUUUGGACUGGGCAGAGCUCAACACAGCGUGGCAAAGUGGCUGUGGCUAGACUGCCUCUCUGGAUUCCUCGUCACUCAGCAGGGCAUCUCUGAGAGAAAUGCC

The data set covers variants of B1. Nature of the data set: self-cleavage, relative activity (ratio to wild type); higher = more cleavage; in vitro, sequencing; the parent is a self-cleaving ribozyme.
In the case of A77G U108C, the self-cleavage is 2.51.

For C76U A117U, the self-cleavage stood at 2.41.

Regarding A77C A124G, the self-cleavage was found to be 0.32.

Regarding C76A A142G, the self-cleavage is 1.87.

Turning to G74U A107G, the self-cleavage came out at 0.51.

Regarding C76U A142G, the self-cleavage was 2.37.

A77G G83A: the self-cleavage is 1.75.

With G74C A140G, the self-cleavage came out at 1.53.

Consider A77G U109G, for which the self-cleavage came out at 0.

As to G74U A142G, the self-cleavage was determined as 1.63.

Turning to A77G C90A, the self-cleavage is 0.03.

Turning to A77G A121G, the self-cleavage came out at 1.69.

On to A77C G126A, for which the self-cleavage was determined as 1.25.

As to C76U A129G, the self-cleavage worked out at 2.87.

As for A77G A107G, the self-cleavage was found to be 2.08.

With G75A U87C, the self-cleavage turned out to be 0.12.

In the case of C76U A136G, the self-cleavage was 1.75.

C76U U112A: the self-cleavage stood at 2.4.

Regarding G74A A138G, the self-cleavage was 1.26.

For the variant A77G A79G, the self-cleavage came out at 0.95.

As for G75U U104C, the self-cleavage amounted to 1.32.

For A77C A140G, the self-cleavage is 1.16.

Turning to C76U U132A, the self-cleavage worked out at 2.54.

Turning to A77C U100C, the self-cleavage came to 1.53.

With C76U G137U, the self-cleavage worked out at 1.87.

G75U A142U: the self-cleavage was 0.84.

Regarding C76A G106U, the self-cleavage came out at 1.2.

As to G74A U119C, the self-cleavage was 1.71.

With G75A U134A, the self-cleavage came out at 1.

For the variant C76A U102C, the self-cleavage was 1.39.

As for G74A G86A, the self-cleavage was 0.

For the variant C76U U130C, the self-cleavage was 2.22.

With G74A U130G, the self-cleavage is 1.51.

G75A G86C: the self-cleavage was determined as 0.07.

On to C76U U115C, for which the self-cleavage was found to be 2.12.

On to A77G A124U, for which the self-cleavage was 1.84.

For the variant A77G A124G, the self-cleavage came out at 1.9.

In the case of A77G G89A, the self-cleavage turned out to be 0.03.

With G74A U100A, the self-cleavage amounted to 0.7.

Regarding G74C U102C, the self-cleavage worked out at 0.88.

For the variant A77G A138G, the self-cleavage was determined as 2.3.

Turning to A77G U96A, the self-cleavage was 0.13.

Take G75A A78G: the self-cleavage turned out to be 0.7.

Consider G74U U102C, for which the self-cleavage was 1.42.

With A77G A136U, the self-cleavage turned out to be 1.92.

Take A77G A136G: the self-cleavage was 2.64.

For C76U A92G, the self-cleavage amounted to 0.06.

As for C76U, the self-cleavage was 2.18.

Regarding C76A, the self-cleavage was found to be 1.71.

Turning to C76G, the self-cleavage turned out to be 2.01.

Turning to A77G U100A, the self-cleavage came out at 1.93.

As for A77C U132C, the self-cleavage worked out at 1.19.

Regarding C76U C101A, the self-cleavage was 1.6.

Take A77G U115C: the self-cleavage amounted to 2.05.

For A77G U115A, the self-cleavage worked out at 2.25.

Take A77G A129G: the self-cleavage came to 2.21.

Consider G75A U104A, for which the self-cleavage came to 0.87.

As for G75A U104C, the self-cleavage came out at 1.43.

Take A77G: the self-cleavage turned out to be 2.12.

With A77C, the self-cleavage came out at 0.98.

Consider A77U, for which the self-cleavage stood at 1.21.

As to A77C U96C, the self-cleavage came out at 0.09.

For G74U U91C, the self-cleavage was 0.59.

Take G74U U91A: the self-cleavage was found to be 0.57.

With G75C U108C, the self-cleavage is 0.77.

On to A77G G139U, for which the self-cleavage worked out at 2.41.

Take C76U U143A: the self-cleavage turned out to be 2.12.

On to C76U A77U, for which the self-cleavage was 2.05.

Turning to G74A U104C, the self-cleavage worked out at 1.34.

For C76U A141C, the self-cleavage was found to be 1.29.

As for C76U A141G, the self-cleavage amounted to 1.18.

For the variant G75A A124G, the self-cleavage stood at 0.72.

As to A77G C133U, the self-cleavage was determined as 1.99.

As to C76U C98U, the self-cleavage was determined as 0.61.

G75A U102A: the self-cleavage turned out to be 1.36.

On to G75U C90U, for which the self-cleavage was determined as 0.03.

C76A U134A: the self-cleavage worked out at 0.84.

A77G C103U: the self-cleavage came out at 1.99.

As to A77G C103A, the self-cleavage amounted to 2.24.

A77G A94U: the self-cleavage was determined as 0.61.

Take A77G A94G: the self-cleavage was 0.68.

For the variant A77G G125U, the self-cleavage was found to be 2.41.

With A77G G125A, the self-cleavage is 2.43.

On to A77G C110U, for which the self-cleavage was determined as 0.71.

For the variant C76A U132C, the self-cleavage came to 2.08.

Regarding A77G U119C, the self-cleavage was 2.81.

With A77U A79G, the self-cleavage came out at 1.48.

Consider G74A U96A, for which the self-cleavage came to 0.07.

On to A77G U130C, for which the self-cleavage is 2.56.

On to C76A A78G, for which the self-cleavage came out at 1.68.

For the variant G74A U115A, the self-cleavage is 1.45.

In the case of G75A G126A, the self-cleavage came to 0.87.

As to G75C A142G, the self-cleavage was determined as 0.85.

A77C U108C: the self-cleavage was found to be 1.6.

For the variant G74U A140G, the self-cleavage turned out to be 1.99.

As for G74U A92G, the self-cleavage came to 0.06.

As to A77G C98A, the self-cleavage was 0.23.

In the case of A77G C98G, the self-cleavage was 0.21.

Take G74A U102G: the self-cleavage came to 0.56.

In the case of G74U A77G, the self-cleavage amounted to 1.01.

Consider G75U U81C, for which the self-cleavage was found to be 0.83.

On to A77G C113A, for which the self-cleavage came out at 2.1.

Turning to A77G C113U, the self-cleavage was 2.28.

Take G75C A77G: the self-cleavage came to 0.8.

As for G75C A77U, the self-cleavage came to 0.75.

Regarding A77C U143C, the self-cleavage is 1.12.

As for G74A C84U, the self-cleavage worked out at 0.07.

On to G74U U134C, for which the self-cleavage is 1.88.

As to G74U A78U, the self-cleavage amounted to 2.2.

In the case of G74A U108C, the self-cleavage came out at 1.48.

Regarding A77C U91A, the self-cleavage turned out to be 0.38.

Take A77C U85A: the self-cleavage stood at 0.18.

C76U U119C: the self-cleavage amounted to 2.91.

For A77C G93A, the self-cleavage was determined as 0.06.

With G75A A136G, the self-cleavage turned out to be 1.35.

Regarding G74A A142G, the self-cleavage came to 1.1.

Regarding G74U U130C, the self-cleavage was found to be 1.64.

As for G75A U115A, the self-cleavage came out at 1.12.

For G75A G83A, the self-cleavage came out at 0.76.

In the case of C76U U100C, the self-cleavage was determined as 2.91.

As to A77G G127U, the self-cleavage worked out at 2.58.

For G74C C99U, the self-cleavage worked out at 0.61.

C76A A136G: the self-cleavage was 1.79.

As for G75A, the self-cleavage was 1.11.

In the case of G75U, the self-cleavage worked out at 0.62.

Consider G75C, for which the self-cleavage amounted to 0.6.

Consider A77U A92U, for which the self-cleavage was determined as 0.63.

Consider A77U A92G, for which the self-cleavage is 0.05.

For the variant G75U G139A, the self-cleavage turned out to be 0.89.

In the case of G74A A140U, the self-cleavage was 1.31.

As to G74A A140G, the self-cleavage came out at 1.22.

G74A U85A: the self-cleavage came out at 0.05.

For A77G G97C, the self-cleavage amounted to 0.65.

Take A77G G97U: the self-cleavage worked out at 0.08.

Take A77G G93U: the self-cleavage came out at 0.05.

For the variant C76A U87C, the self-cleavage turned out to be 0.38.

Turning to C76A U87G, the self-cleavage turned out to be 0.11.

On to G74U A121U, for which the self-cleavage is 1.02.

Take G75A U109C: the self-cleavage is 1.1.

In the case of G75A U109A, the self-cleavage stood at 0.99.

On to G75C U134C, for which the self-cleavage amounted to 0.58.

With G75A U130C, the self-cleavage worked out at 0.95.

With A77C A121G, the self-cleavage came out at 1.55.

For C76A A141G, the self-cleavage was 2.26.

For the variant C76U A107G, the self-cleavage stood at 2.53.

Take A77G A117G: the self-cleavage amounted to 2.32.

Consider C76U U96C, for which the self-cleavage was determined as 0.13.

With C76U U96A, the self-cleavage is 0.05.

A77G C128G: the self-cleavage worked out at 1.86.

On to C76U A94C, for which the self-cleavage amounted to 0.11.

For the variant A77C U115C, the self-cleavage is 0.6.

Take G75U U85C: the self-cleavage came out at 0.07.

For A77U A78G, the self-cleavage was 0.68.

Regarding A77G U102A, the self-cleavage was determined as 2.63.

Take G75A U132A: the self-cleavage stood at 1.15.

With A77C U102A, the self-cleavage was determined as 1.37.

For G75A A140G, the self-cleavage came out at 0.88.

For the variant G74A A129U, the self-cleavage worked out at 1.09.

As for A77G U132A, the self-cleavage amounted to 2.34.

For the variant A77G G88A, the self-cleavage came to 0.09.

Turning to A77G A141G, the self-cleavage worked out at 2.25.

Take A77G A141U: the self-cleavage stood at 1.89.

For C76U A79G, the self-cleavage was determined as 2.1.

For G74U G114A, the self-cleavage was 1.21.

In the case of G75A A117U, the self-cleavage was 1.53.

On to G74A U87A, for which the self-cleavage turned out to be 0.07.

On to A77G U104A, for which the self-cleavage worked out at 1.64.
